Drawing on patent US8217006B2, “Inhibiting GS-FDH to modulate no bioactivity” (Duke University, priority 2001, dated 2012), this text covers Km and kcat for 1 protein.

Substrate in this data set: N[C@@H](CCC(=O)N[C@@H](CSN=O)C(=O)NCC(=O)O)C(=O)O
Description: cells, lysate or membranes named. The following applies: other: purified protein from RAW 264.7 cells; pH 8.0.

B1: mouse GS-FDH (Mus musculus) (protein)
chain: MANQVIRCKAAVAWEAGKPLSIEEIEVAPPKAHEVRIKILATAVCHTDAYTLSGADPEGCFPVILGHEGAGIVESVGEGVTKLKAGDTVIPLYIPQCGECKFCLNPKTNLCQKIRVTQGKGLMPDGTSRFTCKGKSVFHFMGTSTFSEYTVVADISVAKIDPSAPLDKVCLLGCGISTGYGAAVNTAKVEPGSTCAVFGLGGVGLAVIMGCKVAGASRIIGIDINKDKFAKAKEFGASECISPQDFSKSIQEVLVEMTDGGVDYSFECIGNVKVMRSALEAAHKGWGVSVVVGVAASGEEISTRPFQLVTGRTWKGTAFGGWKSVESVPKLVSEYMSKKIKVDEFVTGNLSFDQINQAFDLMHSGDSIRTVLKM
As for B1, the Michaelis constant (Km) was 20 µM and the kcat is given as 5,600 min^−1.
